Results as given in the supplement of paper PMC9170038.

Test system: MS2 coat protein
Test: apparent KD of MS2 coat protein; designed switch direction (-1 OFF switch, 1 ON switch): -1; higher = weaker reporter binding
In short: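 Each step of the titration lasted 0.8–1.5 h at the lowest concentration and 10–20 min at the highest. The protein, SNAP-549-labelled MS2 coat protein, went from 0.7 or 1.5 nM doubling to 3 µM over RNA switches transcribed on Illumina chips by stalled E. coli RNA polymerase. Normalised cluster fluorescence was curve-fitted, and the per-design median over clusters is given as apparent KD.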

[1] = input ligand: microRNA oligo, concentration not stated
[2] = Eterna round: R95, input ligand: FMN 200 uM
[3] = Eterna round: R95, input ligand: microRNA oligo, concentration not stated
[4] = Eterna round: R95, input ligand: none

Sequence	apparent KD of MS2 coat protein (input ligand: FMN 200 uM)	apparent KD of MS2 coat protein (input ligand: none)	apparent KD of MS2 coat protein [1]	apparent KD of MS2 coat protein [2]	apparent KD of MS2 coat protein [3]	apparent KD of MS2 coat protein [4]
UGCAAGCUUAUGAGACCUCACAUGAGGAUCACCCAUGUGCUCGUCUUAUGGGCCGGCCGGCCGUUGGCCGGCCGGCC [-45.5, -68.5 kcal, A 16%] (Eterna round: R97, puzzle: Sensor, turn-off variant 1)	16.6 nM	16.5 nM	–	–	–	–
GAGUGAUAAGGAUAUACAUGAGGAUCACCCAUGUGCUUCAGCUAGGAGACUAGCAUUGGUAGAAGGUAUUACUC [Mod of lroppy 11 - Jieux - Exclusion 3] (Eterna round: R97, puzzle: Exclusion 3)	54.3 nM	18.7 nM	–	–	–	–
UACAAGCUUUUAAGAUCCCACAUGAGGAUCACCCAUGUGCUCGUCUUGUAACGUACUGUGACGAAAGUCACGGUACG [JL TOV1 3.23] (Eterna round: R97, puzzle: Sensor, turn-off variant 1)	26.7 nM	27.5 nM	–	–	–	–
UGUUGUUACGUAGGAUAUGAGGAUCACCCAUAGAAGGAUAUCGAAAGAGAAGGUCUGAGGAUUACCCAGAAGGACGGGUUAACA [pwkr exNG2 2xF5 2xFMN.4] (Eterna round: R96, puzzle: Exclusion NG 2)	1340 nM	139 nM	131 nM	–	–	–
AGCUGUGGCCGAGGAUAUACACAUGAGGAUCACCCAUGUAGGCGCGGAUACGCGCUAAAAUAAUUGUAGAAGGCGGUCUCAGCA [Eli eng2 - 054] (Eterna round: R96, puzzle: Exclusion NG 2)	3.88 nM	10.6 nM	5.92 nM	–	–	–
GUAACAUGCUGGUGAUCAUACAUGAGGAUCACCCAUGUAACAAGCUUUUUGCUCGUCUUAUAAGAUUACUAGUAUGU [Stov1/10-A3] (Eterna round: R97, puzzle: Sensor, turn-off variant 1)	22 nM	24.3 nM	–	–	–	–
AAGAAACAUGAGGAUCACCCAUGUGAGGAUAUGACCAAGAAAAGAAAAGAAAGAAGAUUCAGAAGGCACAAAGG [salish99-ex1_r3_060] (puzzle: Exclusion 1)	–	–	–	49.7 nM	29.9 nM	40.7 nM
AGUGUGUGGCAGGAUAUUCUAAUGAUUAGGAGGGAAGAAGGGUCUACAUGAGGAUCACCCAUGUAAGCGGUUGA [Ex6 #39] (Eterna round: R97, puzzle: Exclusion 6)	135 nM	38.3 nM	–	–	–	–
CUUAGCCUAAAAUCACGCAAGCUUUUUACUUGUCUUAAGACAUGAGGAUCACCCAUGUCCGGGCUGAACUUAUGGAA [Zaortequ] (puzzle: Sensor v3, turn-off variant 2)	–	–	–	21.2 nM	269 nM	21.4 nM
CAGCUGAAAGUGAGGAUAUCUAGAGCUUCGGCUCUAGAGAAGGCACAUGAGGAUCACCCAUGUCUCAACAGCUG [BmEx4/1-A1] (Eterna round: R97, puzzle: Brourd's mod of Exclusion 4)	59.5 nM	16.9 nM	–	–	–	–
CCAUCGUGUGUGAGGAUAUGCUGGUCCUUGGAUCAGCAGAAGGCACAUGAGGAUCACCCAUGUGAAUACGGUGG [JL bmx4 3.21] (puzzle: Brourd's mod of Exclusion 4)	–	–	–	–	17.8 nM	–
CCAAAGUCAGGAUAUACAUGAGGAUCACCCAUGUAAAAUUUUAAUUUAAUUUGAAGGUGUAGAAGGGACAAACC [Ex3 #32] (Eterna round: R97, puzzle: Exclusion 3)	30.5 nM	30.3 nM	–	–	–	–
AUAAAUCAUGUAGGAUAUGCGUGGCAAAGCUAUGCAGAAGGACAUGAGGAUCACCCAUGUGCUUCCGUCUGGGAACAGACGGUA [Mat - Exclusion NG 1 - Mod of JL - D34] (Eterna round: R96, puzzle: Exclusion NG 1)	243 nM	84.9 nM	67.7 nM	–	–	–
UGCAGACGAGGAUAUAGAUUUAGAUACAUGAGGAUCACCCAUGUAUACAUGUAUUUAGAUUUAGAAGGCGUCUGCU [E5/14-A3] (Eterna round: R97, puzzle: Exclusion 5)	952 nM	2220 nM	–	–	–	–
AAAUAGCAUGAGGAUAUUGAACUGUAUAUAGUACGAGAAGGCAUGACAUGAGGAUCACCCAUGUUUUGUUGGGA [EX6 #3] (Eterna round: R97, puzzle: Exclusion 6)	114 nM	33.2 nM	–	–	–	–
AAAAAACAAGGAUAUACGAAGGAGGGUUGUCUUAAUUUUUGACAUGAGGAUCACCCAUGUAGAAGGUGUUAAAA [JR_Exclusion2_Sub012] (puzzle: Exclusion 2)	–	–	–	146 nM	186 nM	188 nM
